# Data published in IntAct's records for PubMed 16803958.
# B1: Protein CBFA2T1 (Homo sapiens), Q06455-4 (parent)
# chain: MPDSPVDVKTQSRLTPPTMPPPPTTQGAPRTSSFTPTTLTNGTSHSPTALNGAPSPPNGFSNGPSSSSSSSLANQQLPPACGARQLSKLKRFLTTLQQFGNDISPEIGERVRTLVLGLVNSTLTIEEFHSKLQEATNFPLRPFVIPFLKANLPLLQRELLHCARLAKQNPAQYLAQHEQLLLDASTTSPVDSSELLLDVNENGKRRTPDRTKENGFDREPLHSEHPSKRPCTISPGQRYSPNNGLSYQPNGLPHPTPPPPQHYRLDDMAIAHHYRDSYRHPSHRDLRDRNRPMGLHGTRQEEMIDHRLTDREWAEEWKHLDHLLNCIMDMVEKTRRSLTVLRRCQEADREELNYWIRRYSDAEDLKKGGGSSSSHSRQQSPVNPDPVALDAHREFLHRPASGYVPEEIWKKAEEAVNEVKRQAMTELQKAVSEAERKAHDMITTERAKMERTVAEAKRQAAEDALAVINQQEDSSESCWNCGRKASETCSGCNTARYCGSFCQHKDWEKHHHICGQTLQAQQQGDTPAVSSSVTPNSGAGSPMDTPPAATPRSTTPGTPSTIETTPR
# Variants of: B1
# Details: with TCF12, Q99081-3
# Sequence of TCF12, Q99081-3 (Q99081 other isoform, or with tags, fused parts or gaps): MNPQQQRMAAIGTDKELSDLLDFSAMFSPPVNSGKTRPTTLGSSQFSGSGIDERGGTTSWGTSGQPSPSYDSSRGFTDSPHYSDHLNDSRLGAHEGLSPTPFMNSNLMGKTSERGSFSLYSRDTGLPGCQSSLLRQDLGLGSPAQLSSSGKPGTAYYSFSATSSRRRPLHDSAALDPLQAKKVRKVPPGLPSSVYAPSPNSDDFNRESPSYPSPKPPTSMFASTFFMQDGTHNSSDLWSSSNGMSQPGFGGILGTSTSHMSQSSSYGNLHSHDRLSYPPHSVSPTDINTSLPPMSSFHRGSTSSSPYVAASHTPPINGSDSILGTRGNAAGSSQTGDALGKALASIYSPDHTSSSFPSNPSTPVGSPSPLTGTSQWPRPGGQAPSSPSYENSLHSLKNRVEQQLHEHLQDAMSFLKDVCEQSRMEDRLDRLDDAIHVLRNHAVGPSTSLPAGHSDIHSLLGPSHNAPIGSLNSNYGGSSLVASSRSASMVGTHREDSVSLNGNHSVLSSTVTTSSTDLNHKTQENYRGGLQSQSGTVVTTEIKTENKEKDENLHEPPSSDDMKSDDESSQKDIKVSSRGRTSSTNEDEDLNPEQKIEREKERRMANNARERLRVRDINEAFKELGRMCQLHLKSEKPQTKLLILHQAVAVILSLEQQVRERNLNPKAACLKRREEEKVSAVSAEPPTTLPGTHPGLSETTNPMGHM
row,Variant,effect of a mutation on the interaction
1,MPDSPVDVKTQSRLTPPTMPPPPTTQGAPRTSSFTPTTLTNGTSHSPTALNGAPSPPNGFSNGPSSSSSSSLANQQLPPACGARQLSKLKRFLTTLQQFGNDISPEIGERVRTLVLGLVNSTLTIEEFHSKLQEATNFPLRPFVIPALKANLPLLQRELLHCARLAKQNPAQYLAQHEQLLLDASTTSPVDSSELLLDVNENGKRRTPDRTKENGFDREPLHSEHPSKRPCTISPGQRYSPNNGLSYQPNGLPHPTPPPPQHYRLDDMAIAHHYRDSYRHPSHRDLRDRNRPMGLHGTRQEEMIDHRLTDREWAEEWKHLDHLLNCIMDMVEKTRRSLTVLRRCQEADREELNYWIRRYSDAEDLKKGGGSSSSHSRQQSPVNPDPVALDAHREFLHRPASGYVPEEIWKKAEEAVNEVKRQAMTELQKAVSEAERKAHDMITTERAKMERTVAEAKRQAAEDALAVINQQEDSSESCWNCGRKASETCSGCNTARYCGSFCQHKDWEKHHHICGQTLQAQQQGDTPAVSSSVTPNSGAGSPMDTPPAATPRSTTPGTPSTIETTPR [F147A],disrupting interaction strength
2,MPDSPVDVKTQSRLTPPTMPPPPTTQGAPRTSSFTPTTLTNGTSHSPTALNGAPSPPNGFSNGPSSSSSSSLANQQLPPACGARQLSKLKRFLTTAQQFGNDISPEIGERVRTLVLGLVNSTLTIEEFHSKLQEATNFPLRPFVIPFLKANLPLLQRELLHCARLAKQNPAQYLAQHEQLLLDASTTSPVDSSELLLDVNENGKRRTPDRTKENGFDREPLHSEHPSKRPCTISPGQRYSPNNGLSYQPNGLPHPTPPPPQHYRLDDMAIAHHYRDSYRHPSHRDLRDRNRPMGLHGTRQEEMIDHRLTDREWAEEWKHLDHLLNCIMDMVEKTRRSLTVLRRCQEADREELNYWIRRYSDAEDLKKGGGSSSSHSRQQSPVNPDPVALDAHREFLHRPASGYVPEEIWKKAEEAVNEVKRQAMTELQKAVSEAERKAHDMITTERAKMERTVAEAKRQAAEDALAVINQQEDSSESCWNCGRKASETCSGCNTARYCGSFCQHKDWEKHHHICGQTLQAQQQGDTPAVSSSVTPNSGAGSPMDTPPAATPRSTTPGTPSTIETTPR [L96A],decreasing interaction strength
3,MPDSPVDVKTQSRLTPPTMPPPPTTQGAPRTSSFTPTTLTNGTSHSPTALNGAPSPPNGFSNGPSSSSSSSLANQQLPPACGARQLSALKRFLTTLQQFGNDISPEIGERVRTLVLGLVNSTLTIEEFHSKLQEATNFPLRPFVIPFLKANLPLLQRELLHCARLAKQNPAQYLAQHEQLLLDASTTSPVDSSELLLDVNENGKRRTPDRTKENGFDREPLHSEHPSKRPCTISPGQRYSPNNGLSYQPNGLPHPTPPPPQHYRLDDMAIAHHYRDSYRHPSHRDLRDRNRPMGLHGTRQEEMIDHRLTDREWAEEWKHLDHLLNCIMDMVEKTRRSLTVLRRCQEADREELNYWIRRYSDAEDLKKGGGSSSSHSRQQSPVNPDPVALDAHREFLHRPASGYVPEEIWKKAEEAVNEVKRQAMTELQKAVSEAERKAHDMITTERAKMERTVAEAKRQAAEDALAVINQQEDSSESCWNCGRKASETCSGCNTARYCGSFCQHKDWEKHHHICGQTLQAQQQGDTPAVSSSVTPNSGAGSPMDTPPAATPRSTTPGTPSTIETTPR [K88A],disrupting interaction strength
4,MPDSPVDVKTQSRLTPPTMPPPPTTQGAPRTSSFTPTTLTNGTSHSPTALNGAPSPPNGFSNGPSSSSSSSLANQQLPPACGARQLSDLKRFLTTLQQFGNDISPEIGERVRTLVLGLVNSTLTIEEFHSKLQEATNFPLRPFVIPFLKANLPLLQRELLHCARLAKQNPAQYLAQHEQLLLDASTTSPVDSSELLLDVNENGKRRTPDRTKENGFDREPLHSEHPSKRPCTISPGQRYSPNNGLSYQPNGLPHPTPPPPQHYRLDDMAIAHHYRDSYRHPSHRDLRDRNRPMGLHGTRQEEMIDHRLTDREWAEEWKHLDHLLNCIMDMVEKTRRSLTVLRRCQEADREELNYWIRRYSDAEDLKKGGGSSSSHSRQQSPVNPDPVALDAHREFLHRPASGYVPEEIWKKAEEAVNEVKRQAMTELQKAVSEAERKAHDMITTERAKMERTVAEAKRQAAEDALAVINQQEDSSESCWNCGRKASETCSGCNTARYCGSFCQHKDWEKHHHICGQTLQAQQQGDTPAVSSSVTPNSGAGSPMDTPPAATPRSTTPGTPSTIETTPR [K88D],disrupting interaction strength
5,MPDSPVDVKTQSRLTPPTMPPPPTTQGAPRTSSFTPTTLTNGTSHSPTALNGAPSPPNGFSNGPSSSSSSSLANQQLPPACGARQLSKLKDFLTTLQQFGNDISPEIGERVRTLVLGLVNSTLTIEEFHSKLQEATNFPLRPFVIPFLKANLPLLQRELLHCARLAKQNPAQYLAQHEQLLLDASTTSPVDSSELLLDVNENGKRRTPDRTKENGFDREPLHSEHPSKRPCTISPGQRYSPNNGLSYQPNGLPHPTPPPPQHYRLDDMAIAHHYRDSYRHPSHRDLRDRNRPMGLHGTRQEEMIDHRLTDREWAEEWKHLDHLLNCIMDMVEKTRRSLTVLRRCQEADREELNYWIRRYSDAEDLKKGGGSSSSHSRQQSPVNPDPVALDAHREFLHRPASGYVPEEIWKKAEEAVNEVKRQAMTELQKAVSEAERKAHDMITTERAKMERTVAEAKRQAAEDALAVINQQEDSSESCWNCGRKASETCSGCNTARYCGSFCQHKDWEKHHHICGQTLQAQQQGDTPAVSSSVTPNSGAGSPMDTPPAATPRSTTPGTPSTIETTPR [R91D],disrupting interaction strength
6,MPDSPVDVKTQSRLTPPTMPPPPTTQGAPRTSSFTPTTLTNGTSHSPTALNGAPSPPNGFSNGPSSSSSSSLANQQLPPACGARQLSKAKRFLTTLQQFGNDISPEIGERVRTLVLGLVNSTLTIEEFHSKLQEATNFPLRPFVIPFLKANLPLLQRELLHCARLAKQNPAQYLAQHEQLLLDASTTSPVDSSELLLDVNENGKRRTPDRTKENGFDREPLHSEHPSKRPCTISPGQRYSPNNGLSYQPNGLPHPTPPPPQHYRLDDMAIAHHYRDSYRHPSHRDLRDRNRPMGLHGTRQEEMIDHRLTDREWAEEWKHLDHLLNCIMDMVEKTRRSLTVLRRCQEADREELNYWIRRYSDAEDLKKGGGSSSSHSRQQSPVNPDPVALDAHREFLHRPASGYVPEEIWKKAEEAVNEVKRQAMTELQKAVSEAERKAHDMITTERAKMERTVAEAKRQAAEDALAVINQQEDSSESCWNCGRKASETCSGCNTARYCGSFCQHKDWEKHHHICGQTLQAQQQGDTPAVSSSVTPNSGAGSPMDTPPAATPRSTTPGTPSTIETTPR [L89A],decreasing interaction strength
7,MPDSPVDVKTQSRLTPPTMPPPPTTQGAPRTSSFTPTTLTNGTSHSPTALNGAPSPPNGFSNGPSSSSSSSLANQQLPPACGARQLSKLKRFLTTLQQFGNDISPEIGERVRTLVLGLVNSTLTIEEFHSKLQEATNFPLDPFVIPFLKANLPLLQRELLHCARLAKQNPAQYLAQHEQLLLDASTTSPVDSSELLLDVNENGKRRTPDRTKENGFDREPLHSEHPSKRPCTISPGQRYSPNNGLSYQPNGLPHPTPPPPQHYRLDDMAIAHHYRDSYRHPSHRDLRDRNRPMGLHGTRQEEMIDHRLTDREWAEEWKHLDHLLNCIMDMVEKTRRSLTVLRRCQEADREELNYWIRRYSDAEDLKKGGGSSSSHSRQQSPVNPDPVALDAHREFLHRPASGYVPEEIWKKAEEAVNEVKRQAMTELQKAVSEAERKAHDMITTERAKMERTVAEAKRQAAEDALAVINQQEDSSESCWNCGRKASETCSGCNTARYCGSFCQHKDWEKHHHICGQTLQAQQQGDTPAVSSSVTPNSGAGSPMDTPPAATPRSTTPGTPSTIETTPR [R141D],disrupting interaction strength
8,MPDSPVDVKTQSRLTPPTMPPPPTTQGAPRTSSFTPTTLTNGTSHSPTALNGAPSPPNGFSNGPSSSSSSSLANQQLPPACGARQLSKLKRFLTTLQQFGNDISPEIGERVRTLVLGLVNSTLTIEEFHSKLQEATNFPLAPFVIPFLKANLPLLQRELLHCARLAKQNPAQYLAQHEQLLLDASTTSPVDSSELLLDVNENGKRRTPDRTKENGFDREPLHSEHPSKRPCTISPGQRYSPNNGLSYQPNGLPHPTPPPPQHYRLDDMAIAHHYRDSYRHPSHRDLRDRNRPMGLHGTRQEEMIDHRLTDREWAEEWKHLDHLLNCIMDMVEKTRRSLTVLRRCQEADREELNYWIRRYSDAEDLKKGGGSSSSHSRQQSPVNPDPVALDAHREFLHRPASGYVPEEIWKKAEEAVNEVKRQAMTELQKAVSEAERKAHDMITTERAKMERTVAEAKRQAAEDALAVINQQEDSSESCWNCGRKASETCSGCNTARYCGSFCQHKDWEKHHHICGQTLQAQQQGDTPAVSSSVTPNSGAGSPMDTPPAATPRSTTPGTPSTIETTPR [R141A],disrupting interaction strength
9,MPDSPVDVKTQSRLTPPTMPPPPTTQGAPRTSSFTPTTLTNGTSHSPTALNGAPSPPNGFSNGPSSSSSSSLANQQLPPACGARQLSKLKRALTTLQQFGNDISPEIGERVRTLVLGLVNSTLTIEEFHSKLQEATNFPLRPFVIPFLKANLPLLQRELLHCARLAKQNPAQYLAQHEQLLLDASTTSPVDSSELLLDVNENGKRRTPDRTKENGFDREPLHSEHPSKRPCTISPGQRYSPNNGLSYQPNGLPHPTPPPPQHYRLDDMAIAHHYRDSYRHPSHRDLRDRNRPMGLHGTRQEEMIDHRLTDREWAEEWKHLDHLLNCIMDMVEKTRRSLTVLRRCQEADREELNYWIRRYSDAEDLKKGGGSSSSHSRQQSPVNPDPVALDAHREFLHRPASGYVPEEIWKKAEEAVNEVKRQAMTELQKAVSEAERKAHDMITTERAKMERTVAEAKRQAAEDALAVINQQEDSSESCWNCGRKASETCSGCNTARYCGSFCQHKDWEKHHHICGQTLQAQQQGDTPAVSSSVTPNSGAGSPMDTPPAATPRSTTPGTPSTIETTPR [F92A],disrupting interaction strength
10,MPDSPVDVKTQSRLTPPTMPPPPTTQGAPRTSSFTPTTLTNGTSHSPTALNGAPSPPNGFSNGPSSSSSSSLANQQLPPACGARQLSKAKRFLTTLQQFGNDISPEIGERVRTLVLGLVNSTLTIEEFHSKLQEATNFPLDPFVIPFLKANLPLLQRELLHCARLAKQNPAQYLAQHEQLLLDASTTSPVDSSELLLDVNENGKRRTPDRTKENGFDREPLHSEHPSKRPCTISPGQRYSPNNGLSYQPNGLPHPTPPPPQHYRLDDMAIAHHYRDSYRHPSHRDLRDRNRPMGLHGTRQEEMIDHRLTDREWAEEWKHLDHLLNCIMDMVEKTRRSLTVLRRCQEADREELNYWIRRYSDAEDLKKGGGSSSSHSRQQSPVNPDPVALDAHREFLHRPASGYVPEEIWKKAEEAVNEVKRQAMTELQKAVSEAERKAHDMITTERAKMERTVAEAKRQAAEDALAVINQQEDSSESCWNCGRKASETCSGCNTARYCGSFCQHKDWEKHHHICGQTLQAQQQGDTPAVSSSVTPNSGAGSPMDTPPAATPRSTTPGTPSTIETTPR [L89A;R141D],disrupting interaction strength
11,MPDSPVDVKTQSRLTPPTMPPPPTTQGAPRTSSFTPTTLTNGTSHSPTALNGAPSPPNGFSNGPSSSSSSSLANQQLPPACGARQLSKLKRALTTLQQFGNDISPEIGERVRTLVLGLVNSTLTIEEFHSKLQEATNFPLRPFVIPALKANLPLLQRELLHCARLAKQNPAQYLAQHEQLLLDASTTSPVDSSELLLDVNENGKRRTPDRTKENGFDREPLHSEHPSKRPCTISPGQRYSPNNGLSYQPNGLPHPTPPPPQHYRLDDMAIAHHYRDSYRHPSHRDLRDRNRPMGLHGTRQEEMIDHRLTDREWAEEWKHLDHLLNCIMDMVEKTRRSLTVLRRCQEADREELNYWIRRYSDAEDLKKGGGSSSSHSRQQSPVNPDPVALDAHREFLHRPASGYVPEEIWKKAEEAVNEVKRQAMTELQKAVSEAERKAHDMITTERAKMERTVAEAKRQAAEDALAVINQQEDSSESCWNCGRKASETCSGCNTARYCGSFCQHKDWEKHHHICGQTLQAQQQGDTPAVSSSVTPNSGAGSPMDTPPAATPRSTTPGTPSTIETTPR [F92A;F147A],disrupting interaction strength
